Test [1] addresses T1, HA-tagged NLRC5 (human NLRC5, full length) (human, UniProt Q86WI3 1-1866).
T1 construct: Expressed from pcDNA3.1 with an HA tag in transfected 293T cells; used in lysates for co-immunoprecipitation; General statements about NLRC5 in overexpression experiments are put on this molecule; also called HA-NLRC5
The test can be described thus: co-IP (anti-HA beads) and Western blot (anti-Flag), transfected 293T cells.

For test [2], the target named is T1, HA-tagged NLRC5 (human NLRC5, full …). The test can be described thus: co-IP (anti-Flag or anti-HA beads) and Western blot, FIG. 15.
The target in test [3] is T2, endogenous mouse NLRC5 (RAW264.7 cells) (mouse, UniProt C3VPR6 1-1915, limits assumed).
T2 construct: Endogenous protein; also called mNLRC5; endogenous mNLRC5
Briefly: IP of RAW264.7 lysate with anti-mNLRC5, Western blot with anti-NEMO.

T1 sequence (Q86WI3 whole entry N907D): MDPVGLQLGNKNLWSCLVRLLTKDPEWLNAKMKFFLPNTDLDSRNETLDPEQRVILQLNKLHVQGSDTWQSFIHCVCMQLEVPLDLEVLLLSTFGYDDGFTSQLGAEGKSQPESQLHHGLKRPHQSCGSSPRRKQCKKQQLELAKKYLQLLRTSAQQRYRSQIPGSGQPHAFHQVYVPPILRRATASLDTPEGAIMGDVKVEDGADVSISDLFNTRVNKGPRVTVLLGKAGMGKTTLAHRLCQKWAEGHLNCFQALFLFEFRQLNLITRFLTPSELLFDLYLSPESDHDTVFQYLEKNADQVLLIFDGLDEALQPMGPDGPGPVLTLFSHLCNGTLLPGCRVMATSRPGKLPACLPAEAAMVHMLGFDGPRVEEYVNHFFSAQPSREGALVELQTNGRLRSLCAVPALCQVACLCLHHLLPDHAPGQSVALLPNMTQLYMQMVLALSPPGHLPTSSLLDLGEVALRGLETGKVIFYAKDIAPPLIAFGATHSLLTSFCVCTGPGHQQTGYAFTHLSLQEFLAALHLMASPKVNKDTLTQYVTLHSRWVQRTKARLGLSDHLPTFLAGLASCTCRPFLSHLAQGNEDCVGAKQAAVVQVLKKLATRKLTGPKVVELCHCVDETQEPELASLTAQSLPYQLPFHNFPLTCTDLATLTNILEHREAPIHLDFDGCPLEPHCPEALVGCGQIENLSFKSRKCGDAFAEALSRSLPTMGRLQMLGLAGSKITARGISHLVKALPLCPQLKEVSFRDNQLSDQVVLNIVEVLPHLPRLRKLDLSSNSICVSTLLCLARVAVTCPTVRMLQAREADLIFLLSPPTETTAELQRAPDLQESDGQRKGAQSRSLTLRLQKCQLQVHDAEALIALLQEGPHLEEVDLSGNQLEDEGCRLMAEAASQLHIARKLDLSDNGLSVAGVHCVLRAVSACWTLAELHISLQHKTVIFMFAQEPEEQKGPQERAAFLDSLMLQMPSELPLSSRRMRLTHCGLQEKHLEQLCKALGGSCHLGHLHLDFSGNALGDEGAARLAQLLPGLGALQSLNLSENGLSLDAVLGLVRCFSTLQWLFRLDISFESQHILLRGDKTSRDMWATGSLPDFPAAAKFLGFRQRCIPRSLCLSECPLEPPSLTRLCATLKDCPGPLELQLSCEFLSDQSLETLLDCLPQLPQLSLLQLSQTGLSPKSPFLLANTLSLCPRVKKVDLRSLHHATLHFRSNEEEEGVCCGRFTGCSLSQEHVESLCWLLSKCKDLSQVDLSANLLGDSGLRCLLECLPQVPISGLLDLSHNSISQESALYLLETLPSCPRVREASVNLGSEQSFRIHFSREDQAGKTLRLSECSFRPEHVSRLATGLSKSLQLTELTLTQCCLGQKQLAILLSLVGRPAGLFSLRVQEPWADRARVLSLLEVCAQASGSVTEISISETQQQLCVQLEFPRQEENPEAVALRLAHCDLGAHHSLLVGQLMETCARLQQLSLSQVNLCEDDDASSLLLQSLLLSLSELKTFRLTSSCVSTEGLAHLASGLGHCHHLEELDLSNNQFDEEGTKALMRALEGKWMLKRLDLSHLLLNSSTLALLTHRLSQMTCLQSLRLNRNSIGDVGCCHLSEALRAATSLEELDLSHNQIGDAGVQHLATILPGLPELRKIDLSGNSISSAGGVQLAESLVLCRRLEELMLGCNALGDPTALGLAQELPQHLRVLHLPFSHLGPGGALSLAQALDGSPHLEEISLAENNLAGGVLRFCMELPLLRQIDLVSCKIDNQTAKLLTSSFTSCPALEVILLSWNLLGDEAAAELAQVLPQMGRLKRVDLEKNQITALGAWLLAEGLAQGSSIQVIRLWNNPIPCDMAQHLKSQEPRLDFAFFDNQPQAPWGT
T2 sequence (C3VPR6 whole entry G881R): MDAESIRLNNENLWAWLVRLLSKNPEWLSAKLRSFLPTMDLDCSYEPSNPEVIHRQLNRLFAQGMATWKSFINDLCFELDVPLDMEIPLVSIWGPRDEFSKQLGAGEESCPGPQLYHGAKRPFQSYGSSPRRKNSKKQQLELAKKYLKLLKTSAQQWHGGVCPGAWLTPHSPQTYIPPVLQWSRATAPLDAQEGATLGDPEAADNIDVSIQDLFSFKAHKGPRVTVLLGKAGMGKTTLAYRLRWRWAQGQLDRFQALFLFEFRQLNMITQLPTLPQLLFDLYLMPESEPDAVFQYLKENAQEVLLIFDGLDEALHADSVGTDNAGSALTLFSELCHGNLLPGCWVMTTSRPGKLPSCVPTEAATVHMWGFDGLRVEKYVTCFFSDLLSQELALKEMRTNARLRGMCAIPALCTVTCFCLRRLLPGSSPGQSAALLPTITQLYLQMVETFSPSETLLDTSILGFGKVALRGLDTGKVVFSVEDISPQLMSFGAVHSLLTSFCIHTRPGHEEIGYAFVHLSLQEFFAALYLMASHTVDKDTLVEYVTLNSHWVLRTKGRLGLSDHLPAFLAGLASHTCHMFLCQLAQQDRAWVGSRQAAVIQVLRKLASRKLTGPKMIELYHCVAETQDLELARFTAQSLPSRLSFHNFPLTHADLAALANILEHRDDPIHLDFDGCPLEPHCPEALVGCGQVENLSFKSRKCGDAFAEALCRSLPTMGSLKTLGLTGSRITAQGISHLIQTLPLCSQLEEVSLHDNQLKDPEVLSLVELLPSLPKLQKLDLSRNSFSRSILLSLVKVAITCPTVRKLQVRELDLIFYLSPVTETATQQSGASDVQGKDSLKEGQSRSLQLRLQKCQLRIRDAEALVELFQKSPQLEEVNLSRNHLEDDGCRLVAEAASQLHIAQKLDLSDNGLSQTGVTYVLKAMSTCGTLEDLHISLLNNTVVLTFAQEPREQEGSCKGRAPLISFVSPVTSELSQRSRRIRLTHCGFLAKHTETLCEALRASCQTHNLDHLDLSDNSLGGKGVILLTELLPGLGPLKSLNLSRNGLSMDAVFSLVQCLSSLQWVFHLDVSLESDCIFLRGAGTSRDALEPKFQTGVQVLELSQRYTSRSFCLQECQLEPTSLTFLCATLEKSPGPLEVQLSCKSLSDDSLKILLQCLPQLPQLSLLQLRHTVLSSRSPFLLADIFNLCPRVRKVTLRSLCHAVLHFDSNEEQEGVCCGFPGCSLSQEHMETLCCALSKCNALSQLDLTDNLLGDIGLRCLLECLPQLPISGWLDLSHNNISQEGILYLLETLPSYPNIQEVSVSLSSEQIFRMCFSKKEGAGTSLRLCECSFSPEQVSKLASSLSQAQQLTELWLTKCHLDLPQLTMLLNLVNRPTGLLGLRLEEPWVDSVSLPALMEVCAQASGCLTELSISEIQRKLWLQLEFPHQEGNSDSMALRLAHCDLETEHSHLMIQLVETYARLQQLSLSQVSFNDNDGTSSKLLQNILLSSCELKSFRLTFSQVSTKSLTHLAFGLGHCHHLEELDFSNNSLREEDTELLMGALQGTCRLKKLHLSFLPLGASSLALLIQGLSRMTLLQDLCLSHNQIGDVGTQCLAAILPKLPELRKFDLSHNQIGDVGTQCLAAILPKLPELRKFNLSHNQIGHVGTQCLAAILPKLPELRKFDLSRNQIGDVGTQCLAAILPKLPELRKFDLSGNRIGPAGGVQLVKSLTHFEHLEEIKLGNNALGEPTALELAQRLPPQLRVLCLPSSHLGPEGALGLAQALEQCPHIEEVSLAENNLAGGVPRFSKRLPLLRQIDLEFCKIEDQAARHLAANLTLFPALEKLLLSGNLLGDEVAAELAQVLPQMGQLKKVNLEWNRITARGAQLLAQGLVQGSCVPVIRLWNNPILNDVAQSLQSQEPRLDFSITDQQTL

B1: Flag-MAVS (other, UniProt Q7Z434 1-540, looked up, not shown: small tags and cut ends)
chain: MPFAEDKTYKYICRNFSNFCNVDVVEILPYLPCLTARDQDRLRATCTLSGNRDTLWHLFNTLQRRPGWVEYFIAALRGCELVDLADEVASVYQSYQPRTSDRPPDPLEPPSLPAERPGPPTPAAAHSIPYNSCREKEPSYPMPVQETQAPESPGENSEQALQTLSPRAIPRNPDGGPLESSSDLAALSPLTSSGHQEQDTELGSTHTAGATSSLTPSRGPVSPSVSFQPLARSTPRASRLPGPTGSVVSTGTSFSSSSPGLASAGAAEGKQGAESDQAEPIICSSGAEAPANSLPSKVPTTLMPVNTVALKVPANPASVSTVPSKLPTSSKPPGAVPSNALTNPAPSKLPINSTRAGMVPSKVPTSMVLTKVSASTVPTDGSSRNEETPAAPTPAGATGGSSAWLDSSSENRGLGSELSKPGVLASQVDSPFSGCFEDLAISASTSLGMGPCHGPEENEYKSEGTFGIHVAENPSIQLLEGNPGPPADPDGGPRPQADRKFQEREVPCHRPSPGALWLQVAVTGVLVVTLLVVLYRRRLH
For B1, in test [1], the binding result is “no binding”.

B2: IKKi (expressed in 293T cells, detected with anti-Flag) (enzyme, UniProt Q14164 1-716, looked up, not shown: small tags and cut ends)
chain: MQSTANYLWHTDDLLGQGATASVYKARNKKSGELVAVKVFNTTSYLRPREVQVREFEVLRKLNHQNIVKLFAVEETGGSRQKVLVMEYCSSGSLLSVLESPENAFGLPEDEFLVVLRCVVAGMNHLRENGIVHRDIKPGNIMRLVGEEGQSIYKLTDFGAARELDDDEKFVSVYGTEEYLHPDMYERAVLRKPQQKAFGVTVDLWSIGVTLYHAATGSLPFIPFGGPRRNKEIMYRITTEKPAGAIAGAQRRENGPLEWSYTLPITCQLSLGLQSQLVPILANILEVEQAKCWGFDQFFAETSDILQRVVVHVFSLSQAVLHHIYIHAHNTIAIFQEAVHKQTSVAPRHQEYLFEGHLCVLEPSVSAQHIAHTTASSPLTLFSTAIPKGLAFRDPALDVPKFVPKVDLQADYNTAKGVLGAGYQALRLARALLDGQELMFRGLHWVMEVLQATCRRTLEVARTSLLYLSSSLGTERFSSVAGTPEIQELKAAAELRSRLRTLAEVLSRCSQNITETQESLSSLNRELVKSRDQVHEDRSIQQIQCCLDKMNFIYKQFKKSRMRPGLGYNEEQIHKLDKVNFSHLAKRLLQVFQEECVQKYQASLVTHGKRMRVVHETRNHLRLVGCSVAACNTEAQGVQESLSKLLEELSHQLLQDRAKGAQASPPPIAPYPSPTRKDLLLHMQELCEGMKLLASDLLDNNRIIERLNRVPAPPDV
On to B2, for which the binding result in test [1] is on record as “no binding”.

B3: IRF3 (expressed in 293T cells) (other, UniProt Q14653 1-427, looked up, not shown: small tags and cut ends)
chain: MGTPKPRILPWLVSQLDLGQLEGVAWVNKSRTRFRIPWKHGLRQDAQQEDFGIFQAWAEATGAYVPGRDKPDLPTWKRNFRSALNRKEGLRLAEDRSKDPHDPHKIYEFVNSGVGDFSQPDTSPDTNGGGSTSDTQEDILDELLGNMVLAPLPDPGPPSLAVAPEPCPQPLRSPSLDNPTPFPNLGPSENPLKRLLVPGEEWEFEVTAFYRGRQVFQQTISCPEGLRLVGSEVGDRTLPGWPVTLPDPGMSLTDRGVMSYVRHVLSCLGGGLALWRAGQWLWAQRLGHCHTYWAVSEELLPNSGHGPDGEVPKDKEGGVFDLGPFIVDLITFTEGSGRSPRYALWFCVGESWPQDQPWTKRLVMVKVVPTCLRALVEMARVGGASSLENTVDLHISNSHPLSLTSDQYKAYLQDLVEGMDFQGPGES
Regarding B3, the binding result in test [2] is “no binding”.

B4: TBK1 (expressed in 293T cells) (enzyme, UniProt Q9UHD2 1-729, looked up, not shown: small tags and cut ends)
chain: MQSTSNHLWLLSDILGQGATANVFRGRHKKTGDLFAIKVFNNISFLRPVDVQMREFEVLKKLNHKNIVKLFAIEEETTTRHKVLIMEFCPCGSLYTVLEEPSNAYGLPESEFLIVLRDVVGGMNHLRENGIVHRDIKPGNIMRVIGEDGQSVYKLTDFGAARELEDDEQFVSLYGTEEYLHPDMYERAVLRKDHQKKYGATVDLWSIGVTFYHAATGSLPFRPFEGPRRNKEVMYKIITGKPSGAISGVQKAENGPIDWSGDMPVSCSLSRGLQVLLTPVLANILEADQEKCWGFDQFFAETSDILHRMVIHVFSLQQMTAHKIYIHSYNTATIFHELVYKQTKIISSNQELIYEGRRLVLEPGRLAQHFPKTTEENPIFVVSREPLNTIGLIYEKISLPKVHPRYDLDGDASMAKAITGVVCYACRIASTLLLYQELMRKGIRWLIELIKDDYNETVHKKTEVVITLDFCIRNIEKTVKVYEKLMKINLEAAELGEISDIHTKLLRLSSSQGTIETSLQDIDSRLSPGGSLADAWAHQEGTHPKDRNVEKLQVLLNCMTEIYYQFKKDKAERRLAYNEEQIHKFDKQKLYYHATKAMTHFTDECVKKYEAFLNKSEEWIRKMLHLRKQLLSLTNQCFDIEEEVSKYQEYTNELQETLPQKMFTASSGIKHTMTPIYPSSNTLVEMTLGMKKLKEEMEGVVKELAENNHILERFGSLTMDGGLRNVDCL
As for B4, the binding result in test [2] is given as “no binding”.

B5: TRAF3 (expressed in 293T cells) (other, UniProt Q13114 1-568, looked up, not shown: small tags and cut ends)
chain: MESSKKMDSPGALQTNPPLKLHTDRSAGTPVFVPEQGGYKEKFVKTVEDKYKCEKCHLVLCSPKQTECGHRFCESCMAALLSSSSPKCTACQESIVKDKVFKDNCCKREILALQIYCRNESRGCAEQLMLGHLLVHLKNDCHFEELPCVRPDCKEKVLRKDLRDHVEKACKYREATCSHCKSQVPMIALQKHEDTDCPCVVVSCPHKCSVQTLLRSELSAHLSECVNAPSTCSFKRYGCVFQGTNQQIKAHEASSAVQHVNLLKEWSNSLEKKVSLLQNESVEKNKSIQSLHNQICSFEIEIERQKEMLRNNESKILHLQRVIDSQAEKLKELDKEIRPFRQNWEEADSMKSSVESLQNRVTELESVDKSAGQVARNTGLLESQLSRHDQMLSVHDIRLADMDLRFQVLETASYNGVLIWKIRDYKRRKQEAVMGKTLSLYSQPFYTGYFGYKMCARVYLNGDGMGKGTHLSLFFVIMRGEYDALLPWPFKQKVTLMLMDQGSSRRHLGDAFKPDPNSSSFKKPTGEMNIASGCPVFVAQTVLENGTYIKDDTIFIKVIVDTSDLPDP
Regarding B5, the binding result in test [2] was “no binding”.

B6: endogenous NEMO (RAW264.7 cells) (other, mouse, UniProt O88522 1-412, looked up)
chain: MNKHPWKNQLSEMVQPSGGPAEDQDMLGEESSLGKPAMLHLPSEQGTPETLQRCLEENQELRDAIRQSNQMLRERCEELLHFQVSQREEKEFLMCKFQEARKLVERLSLEKLDLRSQREQALKELEQLKKCQQQMAEDKASVKAQVTSLLGELQESQSRLEAATKDRQALEGRIRAVSEQVRQLESEREVLQQQHSVQVDQLRMQNQSVEAALRMERQAASEEKRKLAQLQAAYHQLFQDYDSHIKSSKGMQLEDLRQQLQQAEEALVAKQELIDKLKEEAEQHKIVMETVPVLKAQADIYKADFQAERHAREKLVEKKEYLQEQLEQLQREFNKLKVGCHESARIEDMRKRHVETPQPPLLPAPAHHSFHLALSNQRRSPPEEPPDFCCPKCQYQAPDMDTLQIHVMECIE
On to B6, for which the binding result in test [3] is reported as “no binding”.

Values taken from patent US20110229560A1 (published 2011).
